Experimental data: US20100311648A1 (AstraZeneca / MedImmune, published 2010)
Read-outs that look alike come from different tables or passages of the source. Positions of bridges follow the written chain, without caps; N, C: chain ends. Non-standard residues stand in square brackets, D forms with d. dPhe(2-CF3) = N[C@H](Cc1ccccc1C(F)(F)F)C(=O)O; dPhe(4-CN) = N#Cc1ccc(C[C@@H](N)C(=O)O)cc1; Orn = NCCC[C@H](N)C(=O)O; Dab = NCC[C@H](N)C(=O)O

Columns and labels:
[1] = molecular target: T1, human melanocortin-4 receptor (human, UniProt P32245 1-332); assay: cell-based or functional assay
T1 sequence (P32245 whole entry): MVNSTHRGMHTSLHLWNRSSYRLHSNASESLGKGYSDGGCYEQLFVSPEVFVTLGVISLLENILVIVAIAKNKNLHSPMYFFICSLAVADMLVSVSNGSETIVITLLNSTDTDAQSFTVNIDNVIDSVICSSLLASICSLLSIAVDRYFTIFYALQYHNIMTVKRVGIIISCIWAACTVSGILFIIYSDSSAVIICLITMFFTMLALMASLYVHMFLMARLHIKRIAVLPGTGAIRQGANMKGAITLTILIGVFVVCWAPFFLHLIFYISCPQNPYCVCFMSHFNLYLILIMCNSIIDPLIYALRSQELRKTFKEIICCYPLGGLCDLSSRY

melanocortin-1 receptor = molecular target: T2, melanocortin-1 receptor (mouse (B-16 melanoma cells); in some …, UniProt Q01727 1-315); assay: [I125]-NDP-α-MSH competition, MC1-R membranes
T2 construct: whole, on cells; membrane homogenates; also called MC1-R; mouse B16 MC1-R
T2 sequence (Q01727 whole entry): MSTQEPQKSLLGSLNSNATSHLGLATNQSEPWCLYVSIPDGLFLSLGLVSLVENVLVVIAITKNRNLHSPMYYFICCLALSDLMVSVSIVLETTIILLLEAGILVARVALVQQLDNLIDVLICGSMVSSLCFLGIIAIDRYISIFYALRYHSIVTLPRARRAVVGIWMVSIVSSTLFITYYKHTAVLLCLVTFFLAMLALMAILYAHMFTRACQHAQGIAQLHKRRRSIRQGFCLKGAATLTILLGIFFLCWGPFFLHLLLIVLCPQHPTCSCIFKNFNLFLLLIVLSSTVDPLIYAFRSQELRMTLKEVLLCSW
Protocol: A competitive inhibition binding assay was performed for exemplified peptides according to the invention using membrane homogenates prepared from HEK-293 cells that express recombinant hMC4-R, hMC3-R, or hMC5-R, and from B-16 mouse melanoma cells (containing endogenous MC1-R). In some instances, HEK-293 cells that express recombinant hMC1-R were employed. Assays were performed in 96 well GF/B Millipore multiscreen filtration plates (MAFB NOB10) pre-coated with 0.5% bovine serum albumin (Fraction V). […] After incubation for 60 minutes at 37° C., the assay mixture was filtered and the membranes washed three times with ice-cold buffer. Filters were dried and counted in a gamma counter for bound radioactivity. […] Each assay was conducted in triplicate and the actual mean values are described, with results less than 0% reported as 0%. Ki values for test peptides of the present invention were determined using Graph-Pad Prism® curve-fitting software.

[2] = molecular target: T1, human melanocortin-4 receptor; assay: [I125]-NDP-α-MSH competition, hMC4-R HEK-293 membranes
[3] = molecular target: T1, human melanocortin-4 receptor; assay: cell-based or functional assay; remark: listed apart in the source
[4] = molecular target: T1, human melanocortin-4 receptor; assay: Ki of Table 1; receptor not given, taken as hMC4-R

EC50, cAMP, 0.1 ng/mL Doxycycline [1] [nM] | EC50, cAMP, 10 ng/mL Doxycycline [1] [nM] | Intrinsic Activity, cAMP, 0.1 ng/mL Doxycycline [1] [%] | Intrinsic Activity, cAMP, 10 ng/mL Doxycycline [1] [%] | Ki (melanocortin-1 receptor) [nM] | Ki [2] [nM] | EC50, cAMP, 0.1 ng/mL Doxycycline [3] [nM] | Ki [4] [nM] | Binder
1 | 0.185 | 73 | 117 | 93 | 8 |  |  | Ac-REQ[dPhe(2-CF3)]RW[Orn]-NH2 (lactam 2-7, also called No. 114) [Ac-Arg-cyclo(Glu-Gln-D-Phe(2-CF3)-Arg-Trp-Orn)-NH2]
 |  |  |  |  |  | 0.33 | 0.65 | Ac-RE[Dab][dF]RW[Orn]-NH2 (lactam 2-7) [Ac-Arg-cyclo(Glu-Dab-D-Phe-Arg-Trp-Orn)-NH2]
9 | 0.483 | 36 | 96 | 3970 | 40 |  |  | Ac-REQ[dPhe(4-CN)]RW[Orn]-OH (lactam 2-7, also called No. 86) [Ac-Arg-cyclo(Glu-Gln-D-Phe(4-CN)-Arg-Trp-Orn)-OH]
